# Reference: patent US20250333486A1, “Anti-HSP90 alpha antibody and uses thereof” (NATIONAL HEALTH RESEARCH INSTITUTES, priority 2021, published 2025)
# Entries after “also recorded” stand apart in the source; their conditions may differ.
# B1: HH01: humanized anti-HSP90α IgG1 antibody, mutant of Clone-2-chimera; VH SEQ ID NO: 12, VL SEQ ID NO: 17 (antibody, V domains shown)
# VH: EVQLVESGGGLVQPGGSLRLSCAASGFTFKTYAMNWVRQAPGQGLEWVARIRSKSRNYATYYADSVKDRFTISRDDSKNQFYLQMNNLRTEDTAVYYCVVGGSGFDYWGQGTTLTVSS
# VL: DVVMTQTPLSLPVSLGDQASISCRSSQSIVHSNGNTYLEWYLQKPGQSPQLLIYKVSNRFSGVPDRFSGSGSGTDFTLTISSVEAEDLGVYYCFQGSHVPWTFGGGTKLEIK
# modifications: Heavy chain variable region; Light chain variable region
# Key:
# [1] = system: SW620, PANC-1, and Panc 02 cells; assay: Cell spheroid-forming assay, rHSP90α-induced gain-of-stemness; format: cell-based, human and mouse; conditions: conclusion statement
# Protocol: (§1) One thousand cancer cells were seeded onto each well of 24-well plates pre-coated with a 4-mm thick layer of 0.5% agarose. After incubation 24 h with serum-free medium at 37° C. plus a 5% CO2 humidified atmosphere, cells were added with PBS or 15 μg/ml of rHSP90α in the absence or presence of 10 μg/ml of control IgG or the tested anti-HSP90α antibody. The incubation was kept for 10-14 days with supplements of some fresh serum-free medium every 3 days. Finally, the cell spheroids characterized by tight, non-adherent, and >100 μm in diameter were photographed and counted under an Olympus IX 71 inverted microscope (Center Valley, PA, USA). The spheroid formation % was calculated by the formula: (number of cell spheroids/1000)×100%.
# [2] = Pharmacokinetic assay in male mice; conditions: IV single dose 10 mg/kg
# From the text: Food and water were available ad libitum at all times. For determination of the serum exposure levels of HH01 antibody, blood samples were collected at Day-0.04, 0.08, 0.25, 1, 2, 3, 7, 9, 14, 16, 18, 21, 23, 25, 35, 42, 49, 56, and 63 post administration.
# SW620 and PANC-1 cells = assay: Transwell invasion assay, rHSP90α-induced cancer cell invasion; format: cell-based, human; conditions: conclusion statement
# Protocol: (§2) In a 37° C. and 5% CO2 humidified incubator, cancer cells were subjected to serum starvation in 0.5% FBS-containing medium for 16 h, and then added with PBS or 15 μg/ml of rHSP90α in the absence or presence of 10 μg/ml of control IgG or the tested anti-HSP90α antibody. After another 24 h, the treated cells were harvested as aliquots (1×10^5 cells per aliquot) in 0.5% FBS-containing culture medium, and then each aliquot was seeded into a top chamber of Transwell inserts pre-coated with 5-fold diluted Matrigel (BD Biosciences). Cells were allowed 16 h to invade through the Matrigel toward the bottom chambers containing culture medium plus 10% FBS. The filters of the Transwell inserts were then fixed and stained with Giemsa. Invasive cells on the lower side of filters were photographed using the Axiovert S100/AxioCam HR microscope system (Carl Zeiss, Oberkochen, Germany) and further quantified by the Image-Pro Plus software (Media Cybernetics, Inc., Silver Spring, MD, USA).
# PANC-1 cells [3] = assay: Transwell invasion assay, rHSP90α-induced PANC-1 invasion; format: cell-based, human; conditions: 15 μg/ml rHSP90α plus 10 μg/ml antibody
# Protocol: as §2, with “with PBS or 15 μg/ml of rHSP90α in the absence or presence of 10 μg/ml of control IgG or the tested anti-HSP90α antibody.” left out
# PANC-1 cells [4] = assay: Cell spheroid-forming assay, rHSP90α-induced PANC-1 spheroids; format: cell-based, human; conditions: 15 μg/ml rHSP90α plus 10 μg/ml antibody
# Protocol: as §1
# Solubility of antibody = format: physicochemical
# [5] = Dynamic Light Scattering assay; format: physicochemical
molecule,measurement,setting,value
B1,spheroid-forming activities of pancreatic adenocarcinoma and colorectal cancer cell lines,[1],potently suppresses
same,clearance rate,[2],4.3 mL/day/kg
same,volume in steady state,[2],80 mL/kg
same,invasive activities of pancreatic adenocarcinoma and colorectal cancer cell lines,SW620 and PANC-1 cells,potently suppresses
same,suppression of rHSP90α-induced invasiveness of PANC-1 cells,PANC-1 cells [3],"superior to Clone-2-hB, Clone-2-hC, and their parental Clone-2"
same,suppression of rHSP90α-induced spheroid formation of PANC-1 cells,PANC-1 cells [4],most outstanding efficacy
same,water solubility,Solubility of antibody,quite water-soluble
same,solubility in PBS,Solubility of antibody; PBS,> 10 mg/mL
same,aggregate formation,[5],did not easily form aggregate; also recorded: not easy to form aggregate
same,size of average diameter,[5]; Dynamic Light Scattering,19.33 nm
same,size range,[5]; Dynamic Light Scattering,10-50 nm
